Measurements: PMC9396414, “An antagonistic monoclonal anti–Plexin-B1 antibody exerts therapeutic effects in mouse models of postmenopausal osteoporosis and multiple sclerosis” (The Journal of Biological Chemistry, 2022)

Molecular target: T1, human Sema4D (semaphorin 4D) (human, UniProt Q92854 22-734)
T1 construct: Semaphorin 4D (Sema4D, CD100), human, recombinant protein bought from R&D Systems, cat. no; 7470-S4; check against the vendor's data sheet; also called CD100; source: bought: R&D (7470-S4)
T1 sequence (looked up): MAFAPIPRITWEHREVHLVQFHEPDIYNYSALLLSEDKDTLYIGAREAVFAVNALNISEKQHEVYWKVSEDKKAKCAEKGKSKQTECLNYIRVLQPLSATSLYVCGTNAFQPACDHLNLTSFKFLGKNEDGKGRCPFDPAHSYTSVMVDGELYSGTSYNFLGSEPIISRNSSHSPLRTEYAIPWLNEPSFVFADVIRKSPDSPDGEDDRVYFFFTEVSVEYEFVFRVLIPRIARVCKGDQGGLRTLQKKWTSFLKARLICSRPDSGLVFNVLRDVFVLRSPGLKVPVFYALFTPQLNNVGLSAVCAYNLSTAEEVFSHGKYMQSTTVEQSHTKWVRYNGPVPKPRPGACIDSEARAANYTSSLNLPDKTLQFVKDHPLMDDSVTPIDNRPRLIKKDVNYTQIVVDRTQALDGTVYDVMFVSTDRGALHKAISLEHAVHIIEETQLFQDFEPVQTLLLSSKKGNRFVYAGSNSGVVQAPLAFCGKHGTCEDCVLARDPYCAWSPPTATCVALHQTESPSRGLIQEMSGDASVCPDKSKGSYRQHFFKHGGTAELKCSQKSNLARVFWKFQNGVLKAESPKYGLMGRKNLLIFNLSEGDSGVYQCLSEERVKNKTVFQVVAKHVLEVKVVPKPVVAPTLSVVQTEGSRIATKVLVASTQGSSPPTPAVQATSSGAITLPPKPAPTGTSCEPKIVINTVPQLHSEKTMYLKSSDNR
Test: BLI; OctetRED384; 5 μg/ml biotinylated human Plexin-B1 (20–535)-Avi-6xHis captured on an SA biosensor in 1xKinetics buffer; then 50 nM antibody or buffer, then 50 nM human Sema4D; qualitative analysis of association curves
Settings: both partners purified

binding result: binds
B1: biotinylated human Plexin-B1 (20–535)-Avi-6xHis (domain or fragment, UniProt O43157 20-535, looked up)
chain: LQPLPPTAFTPNGTYLQHLARDPTSGTLYLGATNFLFQLSPGLQLEATVSTGPVLDSRDCLPPVMPDECPQAQPTNNPNQLLLVSPGALVVCGSVHQGVCEQRRLGQLEQLLLRPERPGDTQYVAANDPAVSTVGLVAQGLAGEPLLFVGRGYTSRGVGGGIPPITTRALWPPDPQAAFSYEETAKLAVGRLSEYSHHFVSAFARGASAYFLFLRRDLQAQSRAFRAYVSRVCLRDQHYYSYVELPLACEGGRYGLIQAAAVATSREVAHGEVLFAAFSSAAPPTVGRPPSAAAGASGASALCAFPLDEVDRLANRTRDACYTREGRAEDGTEVAYIEYDVNSDCAQLPVDTLDAYPCGSDHTPSPMASRVPLEATPILEWPGIQLTAVAVTMEDGHTIAFLGDSQGQLHRVYLGPGSDGHPYSTQSIQQGSAVSRDLTFDGTFEHLYVMTQSTLLKVPVASCAQHLDCASCLAHRDPYCGWCVLLGRCSRRSECSRGQGPEQWLWSFQPELGCLQ
modifications: biotin on the Avi-tag (in vitro, BirA enzyme)
notes: Plexin-B1, human, extracellular region residues 20-535; cloned as fragment 1-535 and secreted as 20-535; the Avi-tag stands between the C-terminus of the fragment and the 6xHis tag; The SPR experiments with the antibodies used the form without the Avi-tag, Plexin-B1 (20–535)-6xHis; The cell assays used full-length human Plexin-B1-FLAG (GenScript, pcDNA3.1); also called human recombinant Plexin-B1 …
